From paper PMC12754628 come the findings set out here.

The target in the series is T1, CcpA (Staphylococcus aureus USA300) (UniProt P99175).
T1 sequence: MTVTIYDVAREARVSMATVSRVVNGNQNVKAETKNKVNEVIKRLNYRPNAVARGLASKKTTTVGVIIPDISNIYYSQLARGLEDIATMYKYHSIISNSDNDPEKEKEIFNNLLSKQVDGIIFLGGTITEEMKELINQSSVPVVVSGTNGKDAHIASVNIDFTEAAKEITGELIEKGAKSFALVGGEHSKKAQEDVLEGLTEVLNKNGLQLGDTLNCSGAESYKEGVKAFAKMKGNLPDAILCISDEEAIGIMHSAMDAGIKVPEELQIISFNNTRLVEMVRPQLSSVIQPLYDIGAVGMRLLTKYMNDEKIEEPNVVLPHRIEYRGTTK
The experiment in a line: competition. The conditions noted are these: 10 mM Tris-HCl pH 8.0, 5 mM MgCl2, 1 mM DTT, 50 mM KCl, 0.05% Nonidet P-40, 2.5% glycerol, 25 C, 30 min; 6% native PAGE in 0.5x TBE.

For the sequence “ATGCTTTACCAGCTTTGAATGCTGGAACTTTACTTGCTGGGATATCAATTTCTTTACCAGTTTGAGGGTTACGACCTTTACGTGCAGCACGTTCACGTACCTCAAAGTTACCGAAACCAATTAATTGTACTTTTTCACCTTTAGCAAGTGAGTTTTGGATTGATTCGAATACAGCATCTACTGCTGAACCAGCTTCTTTTT (double strand) [hu]”, the binding entry is recorded as “no binding”.
